{
  "source": "patent US20150258192A1",
  "about": "“COMPOSITIONS AND METHODS FOR PREVENTING OR TREATING CHRONIC LUNG ALLOGRAFT DYSFUNCTION (CLAD) AND IDIOPATHIC PULMONARY FIBROSIS (IPF)” (priority 2014, published 2015)",
  "assay_in_all_cases": "Kinase Profiling Assay",
  "format_in_all_cases": "biochemical",
  "conditions_in_all_cases": "peptide 100 μM",
  "key": {"CDK2/cyclinE(h)": {"target": "CDK2/cyclinE(h) (Homo sapiens, UniProt P24941)", "in_short": "(§1)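 Specificity of MK2 inhibitory peptides is assessed against a panel of 266 human kinases. Kinase transfers a radiolabeled phosphate from ATP onto a positively charged substrate, which is trapped on a negatively charged filter and quantified by scintillation counting against full-activity control; duplicate determinations.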"}, "CDK6/cyclinD3(h)": {"target": "CDK6/cyclinD3(h) (Homo sapiens, UniProt Q00534)", "sequence (Q00534 whole entry)": "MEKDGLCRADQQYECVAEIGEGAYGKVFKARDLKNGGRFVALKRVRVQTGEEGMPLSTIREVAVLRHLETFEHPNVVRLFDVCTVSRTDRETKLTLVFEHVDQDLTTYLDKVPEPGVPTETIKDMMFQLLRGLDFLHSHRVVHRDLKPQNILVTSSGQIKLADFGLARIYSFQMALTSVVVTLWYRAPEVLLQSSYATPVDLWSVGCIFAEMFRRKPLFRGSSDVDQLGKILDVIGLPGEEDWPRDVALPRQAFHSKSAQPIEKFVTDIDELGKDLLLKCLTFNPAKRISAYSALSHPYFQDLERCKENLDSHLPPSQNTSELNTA", "sequence (P30281 whole entry partner)": "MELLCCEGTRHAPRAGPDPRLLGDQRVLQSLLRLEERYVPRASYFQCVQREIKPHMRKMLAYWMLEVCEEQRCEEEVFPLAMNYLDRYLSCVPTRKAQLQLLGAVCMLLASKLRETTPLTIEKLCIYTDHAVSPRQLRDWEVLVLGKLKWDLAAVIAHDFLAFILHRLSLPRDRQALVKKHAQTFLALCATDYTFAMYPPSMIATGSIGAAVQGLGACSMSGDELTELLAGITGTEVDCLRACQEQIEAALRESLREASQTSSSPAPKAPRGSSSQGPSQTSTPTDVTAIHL", "in_short": "as §1"}, "CHK2(I157T)(h)": {"target": "CHK2(I157T)(h) (Homo sapiens, UniProt O96017, I157T)", "sequence (O96017 whole entry I157T)": "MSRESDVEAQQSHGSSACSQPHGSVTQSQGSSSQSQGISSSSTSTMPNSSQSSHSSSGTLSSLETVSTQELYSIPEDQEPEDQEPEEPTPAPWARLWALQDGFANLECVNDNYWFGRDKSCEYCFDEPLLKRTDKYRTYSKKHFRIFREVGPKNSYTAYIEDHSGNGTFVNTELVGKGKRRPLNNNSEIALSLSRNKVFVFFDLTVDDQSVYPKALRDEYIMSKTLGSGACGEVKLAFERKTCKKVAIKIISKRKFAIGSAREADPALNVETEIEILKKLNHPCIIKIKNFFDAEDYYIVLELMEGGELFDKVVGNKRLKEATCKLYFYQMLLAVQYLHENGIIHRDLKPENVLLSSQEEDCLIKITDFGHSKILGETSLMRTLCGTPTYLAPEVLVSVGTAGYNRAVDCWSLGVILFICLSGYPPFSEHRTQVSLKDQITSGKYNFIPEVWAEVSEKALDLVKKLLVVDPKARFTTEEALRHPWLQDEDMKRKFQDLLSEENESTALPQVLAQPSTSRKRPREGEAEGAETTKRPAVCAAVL", "in_short": "as §1"}, "CHK2(R145W)(h)": {"target": "CHK2(R145W)(h) (Homo sapiens, UniProt O96017, R145W)", "sequence (O96017 whole entry R145W)": "as the sequence (O96017 whole entry I157T) above, with R145W, T157I counted along it", "in_short": "as §1"}, "EGFR(h)": {"target": "EGFR(h) (Homo sapiens, UniProt P00533)", "in_short": "as §1"}, "Met(D1246H)(h)": {"target": "T1, Met(D1246H)(h) (Homo sapiens, UniProt P08581, D1228H)", "T1 construct": "purchased Millipore", "in_short": "as §1"}, "PKG1β(h)": {"target": "T2, PKG1β(h) (Homo sapiens, UniProt Q13976)", "T2 sequence (Q13976 1-686 isoform Q13976-2)": "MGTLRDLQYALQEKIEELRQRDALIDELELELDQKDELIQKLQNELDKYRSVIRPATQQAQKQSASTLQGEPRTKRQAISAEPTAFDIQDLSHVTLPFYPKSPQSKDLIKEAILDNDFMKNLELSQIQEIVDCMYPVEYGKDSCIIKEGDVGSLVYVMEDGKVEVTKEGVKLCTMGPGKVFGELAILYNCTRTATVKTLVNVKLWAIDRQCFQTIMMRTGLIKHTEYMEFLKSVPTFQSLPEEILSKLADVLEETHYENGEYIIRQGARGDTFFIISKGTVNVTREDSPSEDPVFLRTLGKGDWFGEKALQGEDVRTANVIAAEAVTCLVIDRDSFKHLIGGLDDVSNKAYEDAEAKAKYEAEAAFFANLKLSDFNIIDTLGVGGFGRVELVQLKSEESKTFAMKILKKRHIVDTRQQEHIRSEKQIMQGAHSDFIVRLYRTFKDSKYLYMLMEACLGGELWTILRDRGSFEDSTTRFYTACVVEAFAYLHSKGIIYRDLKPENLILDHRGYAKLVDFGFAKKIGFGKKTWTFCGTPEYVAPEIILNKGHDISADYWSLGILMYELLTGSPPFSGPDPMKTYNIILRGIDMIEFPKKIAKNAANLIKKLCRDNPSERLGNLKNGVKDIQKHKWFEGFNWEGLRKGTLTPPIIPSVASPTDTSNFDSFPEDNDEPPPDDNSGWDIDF", "in_short": "as §1"}, "Pyk2(h)": {"target": "Pyk2(h) (Homo sapiens, UniProt Q14289)", "sequence (Q14289 whole entry)": "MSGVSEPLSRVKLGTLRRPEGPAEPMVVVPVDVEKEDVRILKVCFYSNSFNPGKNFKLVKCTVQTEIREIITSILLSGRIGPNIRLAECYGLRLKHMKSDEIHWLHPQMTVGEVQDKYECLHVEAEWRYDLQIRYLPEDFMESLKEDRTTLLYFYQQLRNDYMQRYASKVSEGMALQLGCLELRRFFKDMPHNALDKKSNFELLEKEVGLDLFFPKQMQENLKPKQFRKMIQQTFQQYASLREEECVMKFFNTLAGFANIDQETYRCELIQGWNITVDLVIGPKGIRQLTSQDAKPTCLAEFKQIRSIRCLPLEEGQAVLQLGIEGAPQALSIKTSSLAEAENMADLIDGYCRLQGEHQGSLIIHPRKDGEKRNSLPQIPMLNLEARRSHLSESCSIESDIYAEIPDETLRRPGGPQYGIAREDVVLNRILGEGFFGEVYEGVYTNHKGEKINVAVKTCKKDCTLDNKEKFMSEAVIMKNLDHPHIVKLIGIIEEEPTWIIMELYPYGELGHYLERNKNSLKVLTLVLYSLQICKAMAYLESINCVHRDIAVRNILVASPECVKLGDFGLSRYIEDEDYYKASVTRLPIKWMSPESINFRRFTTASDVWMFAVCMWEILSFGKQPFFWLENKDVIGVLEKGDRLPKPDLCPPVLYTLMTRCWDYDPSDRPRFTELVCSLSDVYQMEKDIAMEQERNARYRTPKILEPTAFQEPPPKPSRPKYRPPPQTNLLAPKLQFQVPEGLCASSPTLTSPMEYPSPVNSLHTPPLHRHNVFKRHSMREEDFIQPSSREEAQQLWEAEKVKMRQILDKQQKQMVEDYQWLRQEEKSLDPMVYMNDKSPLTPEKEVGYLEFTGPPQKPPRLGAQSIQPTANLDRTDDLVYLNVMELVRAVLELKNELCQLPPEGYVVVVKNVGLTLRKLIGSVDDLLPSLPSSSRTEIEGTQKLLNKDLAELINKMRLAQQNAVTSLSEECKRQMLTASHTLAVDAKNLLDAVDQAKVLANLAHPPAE", "in_short": "as §1"}, "ULK2(h)": {"target": "T3, ULK2(h) (Homo sapiens, UniProt Q8IYT8)", "T3 sequence (Q8IYT8 1-1036)": "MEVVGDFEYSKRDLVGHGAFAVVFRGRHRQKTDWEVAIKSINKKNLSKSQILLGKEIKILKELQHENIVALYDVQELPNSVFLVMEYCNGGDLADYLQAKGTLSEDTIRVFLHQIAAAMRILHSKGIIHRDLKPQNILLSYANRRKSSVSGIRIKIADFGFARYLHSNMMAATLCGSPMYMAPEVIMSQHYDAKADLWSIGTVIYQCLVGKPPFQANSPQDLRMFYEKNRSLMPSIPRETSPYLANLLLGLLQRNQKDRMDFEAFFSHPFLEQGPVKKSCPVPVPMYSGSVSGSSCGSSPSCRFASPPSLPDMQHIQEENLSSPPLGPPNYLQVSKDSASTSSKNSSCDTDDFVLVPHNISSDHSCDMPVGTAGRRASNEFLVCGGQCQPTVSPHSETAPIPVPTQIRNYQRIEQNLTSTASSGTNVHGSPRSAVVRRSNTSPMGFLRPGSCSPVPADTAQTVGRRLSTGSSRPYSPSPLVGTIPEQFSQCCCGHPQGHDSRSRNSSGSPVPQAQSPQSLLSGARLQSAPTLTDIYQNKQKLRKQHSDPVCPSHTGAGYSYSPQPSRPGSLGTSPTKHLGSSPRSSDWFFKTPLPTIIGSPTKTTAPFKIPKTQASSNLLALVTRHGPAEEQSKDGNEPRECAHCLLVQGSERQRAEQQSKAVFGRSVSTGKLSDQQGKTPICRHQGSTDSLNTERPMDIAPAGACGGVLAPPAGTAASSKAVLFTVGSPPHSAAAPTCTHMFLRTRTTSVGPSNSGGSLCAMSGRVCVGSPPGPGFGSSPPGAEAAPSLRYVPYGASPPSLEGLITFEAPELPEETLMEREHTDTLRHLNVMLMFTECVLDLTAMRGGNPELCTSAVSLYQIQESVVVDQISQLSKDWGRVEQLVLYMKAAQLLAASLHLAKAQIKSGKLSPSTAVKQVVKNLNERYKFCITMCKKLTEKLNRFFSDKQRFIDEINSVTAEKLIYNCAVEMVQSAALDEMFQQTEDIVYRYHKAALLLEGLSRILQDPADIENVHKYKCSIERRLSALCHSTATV", "in_short": "as §1"}, "ZIPK(h)": {"target": "ZIPK(h) (Homo sapiens, UniProt O43293)", "sequence (O43293 whole entry)": "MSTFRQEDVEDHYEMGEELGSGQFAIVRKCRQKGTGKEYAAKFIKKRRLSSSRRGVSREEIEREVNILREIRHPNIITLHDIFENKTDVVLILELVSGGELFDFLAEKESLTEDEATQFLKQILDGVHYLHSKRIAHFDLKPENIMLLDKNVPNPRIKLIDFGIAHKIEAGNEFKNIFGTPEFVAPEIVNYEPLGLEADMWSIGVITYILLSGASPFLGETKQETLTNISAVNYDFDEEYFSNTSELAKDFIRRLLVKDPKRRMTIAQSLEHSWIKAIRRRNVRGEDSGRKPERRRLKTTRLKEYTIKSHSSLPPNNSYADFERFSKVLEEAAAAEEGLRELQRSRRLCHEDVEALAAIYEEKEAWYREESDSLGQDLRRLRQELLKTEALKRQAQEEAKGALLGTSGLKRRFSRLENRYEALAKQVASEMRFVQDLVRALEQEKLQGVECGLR", "in_short": "as §1"}},
  "note": "No end group written: not given here.",
  "data": [
    {"sequence": "FAKLAARLYRKALARQLGVAA [MMI-0300]", "values": [
      {"measurement": "% activity", "setting": "CDK2/cyclinE(h)", "value": 94, "unit": "%"},
      {"measurement": "% activity", "setting": "CDK6/cyclinD3(h)", "value": 86, "unit": "%"},
      {"measurement": "% activity", "setting": "CHK2(I157T)(h)", "value": 43, "unit": "%"},
      {"measurement": "% activity", "setting": "CHK2(R145W)(h)", "value": 33, "unit": "%"},
      {"measurement": "% activity", "setting": "EGFR(h)", "value": 21, "unit": "%"},
      {"measurement": "% activity", "setting": "Met(D1246H)(h)", "value": 125, "unit": "%"},
      {"measurement": "% activity", "setting": "PKG1β(h)", "value": 50, "unit": "%"},
      {"measurement": "% activity", "setting": "Pyk2(h)", "value": 47, "unit": "%"},
      {"measurement": "% activity", "setting": "ULK2(h)", "value": 122, "unit": "%"},
      {"measurement": "% activity", "setting": "ZIPK(h)", "value": 28, "unit": "%"}
    ]},
    {"sequence": "HRRIKAWLKKIKALARQLGVAA (Mammal) [MMI-0500]", "values": [
      {"measurement": "% activity", "setting": "CDK2/cyclinE(h)", "value": 19, "unit": "%"},
      {"measurement": "% activity", "setting": "CDK6/cyclinD3(h)", "value": 23, "unit": "%"},
      {"measurement": "% activity", "setting": "CHK2(I157T)(h)", "value": 3, "unit": "%"},
      {"measurement": "% activity", "setting": "CHK2(R145W)(h)", "value": 3, "unit": "%"},
      {"measurement": "% activity", "setting": "EGFR(h)", "value": -1, "unit": "%"},
      {"measurement": "% activity", "setting": "Met(D1246H)(h)", "value": 150, "unit": "%"},
      {"measurement": "% activity", "setting": "PKG1β(h)", "value": 24, "unit": "%"},
      {"measurement": "% activity", "setting": "Pyk2(h)", "value": 46, "unit": "%"},
      {"measurement": "% activity", "setting": "ULK2(h)", "value": 124, "unit": "%"},
      {"measurement": "% activity", "setting": "ZIPK(h)", "value": 1, "unit": "%"}
    ]},
    {"sequence": "KAFAKLAARLYRKALARQLGVAA [MMI-0400]", "values": [
      {"measurement": "% activity", "setting": "CDK2/cyclinE(h)", "value": 83, "unit": "%"},
      {"measurement": "% activity", "setting": "CDK6/cyclinD3(h)", "value": 85, "unit": "%"},
      {"measurement": "% activity", "setting": "CHK2(I157T)(h)", "value": 41, "unit": "%"},
      {"measurement": "% activity", "setting": "CHK2(R145W)(h)", "value": 31, "unit": "%"},
      {"measurement": "% activity", "setting": "EGFR(h)", "value": 16, "unit": "%"},
      {"measurement": "% activity", "setting": "Met(D1246H)(h)", "value": 68, "unit": "%"},
      {"measurement": "% activity", "setting": "PKG1β(h)", "value": 53, "unit": "%"},
      {"measurement": "% activity", "setting": "Pyk2(h)", "value": 34, "unit": "%"},
      {"measurement": "% activity", "setting": "ULK2(h)", "value": 131, "unit": "%"},
      {"measurement": "% activity", "setting": "ZIPK(h)", "value": 13, "unit": "%"}
    ]},
    {"sequence": "YARAAARQARAKALARQLGVAA [MMI-0100]", "values": [
      {"measurement": "% activity", "setting": "CHK2(I157T)(h)", "value": 97, "unit": "%"},
      {"measurement": "% activity", "setting": "CHK2(R145W)(h)", "value": 97, "unit": "%"},
      {"measurement": "% activity", "setting": "Met(D1246H)(h)", "value": 99, "unit": "%"},
      {"measurement": "% activity", "setting": "PKG1β(h)", "value": 71, "unit": "%"},
      {"measurement": "% activity", "setting": "ULK2(h)", "value": 123, "unit": "%"}
    ]},
    {"sequence": "YARAAARQARAKALNRQLGVA (Mammal) [MMI-0200]", "values": [
      {"measurement": "% activity", "setting": "CDK6/cyclinD3(h)", "value": 100, "unit": "%"},
      {"measurement": "% activity", "setting": "CHK2(I157T)(h)", "value": 85, "unit": "%"},
      {"measurement": "% activity", "setting": "CHK2(R145W)(h)", "value": 81, "unit": "%"},
      {"measurement": "% activity", "setting": "EGFR(h)", "value": 83, "unit": "%"},
      {"measurement": "% activity", "setting": "Met(D1246H)(h)", "value": 139, "unit": "%"},
      {"measurement": "% activity", "setting": "PKG1β(h)", "value": 57, "unit": "%"},
      {"measurement": "% activity", "setting": "Pyk2(h)", "value": 127, "unit": "%"},
      {"measurement": "% activity", "setting": "ULK2(h)", "value": 132, "unit": "%"},
      {"measurement": "% activity", "setting": "ZIPK(h)", "value": 67, "unit": "%"}
    ]}
  ]
}
